From patent US20110236427A1 (MEDIZINISCHE UNIVERSITAT INNSBRUCK, published 2011)

Experiments:
[1] = target: T1, endogenous PKCalpha from Jurkat T cell lysates (human, UniProt P17252 2-672); assay: GST pull down from Jurkat T cell lysates, immunoblot
T1 construct: Detected by immunoblot with an anti-PKCalpha antibody (UBI) after the GST pull down; also called PKCα
Experimental: (§1) GST pull down assay: 1×10⁷ Jurkat T cells were lysed in 1 ml lysis buffer (25 mM MES pH6.5, 5 mM NaF, 1 mM Na₃VO₄, 2 mM EDTA, 150 mM NaCl, 0.5% TritonX-100, 50 μg/ml aprotinin and leupeptin). Lysates were precleared for 30 min at 4° C. Thereafter incubation with purified recombinant GST-NR2F6 fusion proteins for 3 h at 4° C., 5× washing in lysis buffer, SDS-PAGE under reducing conditions on Bis/Tris-buffered gels (Novex, San Diego, Calif.) was performed. Proteins were transferred onto a polyvinyl-difluoridon (PVDF) membrane (Millipore, Bedford, Mass.) by semi-dry blotting (90 mA, 80 min, 4° C.). […] Peroxidase-conjugated antibodies (Pierce, Rockford, Ill.) served as secondary reagent (1:5,000). For antigen detection enhanced chemiluminescence was used (Super Signal, Pierce, Rockford, Ill.).

[2] = target: T2, endogenous PKCtheta from Jurkat T cell lysates (human, UniProt Q04759 1-706); assay: as above
T2 construct: Detected by immunoblot with an anti-PKCtheta antibody (Cell Signalling) after the GST pull down
T2 sequence (Q04759 whole entry): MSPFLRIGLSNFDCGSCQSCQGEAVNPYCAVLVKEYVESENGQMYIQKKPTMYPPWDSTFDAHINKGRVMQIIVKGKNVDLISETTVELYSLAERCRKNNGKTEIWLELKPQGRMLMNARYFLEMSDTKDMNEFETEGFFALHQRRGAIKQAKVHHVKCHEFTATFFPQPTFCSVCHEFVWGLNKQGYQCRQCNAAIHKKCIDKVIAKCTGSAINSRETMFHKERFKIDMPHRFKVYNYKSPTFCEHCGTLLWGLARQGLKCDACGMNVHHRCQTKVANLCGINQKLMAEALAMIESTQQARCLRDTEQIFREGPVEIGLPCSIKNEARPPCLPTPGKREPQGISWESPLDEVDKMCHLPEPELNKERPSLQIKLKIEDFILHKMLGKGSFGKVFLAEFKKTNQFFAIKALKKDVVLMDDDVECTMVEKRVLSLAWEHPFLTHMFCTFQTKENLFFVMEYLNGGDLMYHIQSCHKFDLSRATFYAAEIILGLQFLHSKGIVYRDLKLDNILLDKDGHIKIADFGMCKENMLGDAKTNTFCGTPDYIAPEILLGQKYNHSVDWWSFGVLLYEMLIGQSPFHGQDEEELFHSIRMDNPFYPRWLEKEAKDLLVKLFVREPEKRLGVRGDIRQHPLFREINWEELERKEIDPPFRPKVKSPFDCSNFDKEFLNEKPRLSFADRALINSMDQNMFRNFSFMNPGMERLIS
Experimental: as §1

binding result [1]: binds
binding result [2]: binds
B1: GST-NR2F6 fusion protein, full-length, wild-type (other)
chain: MAMVTGGWGGPGGDTNGVDKAGGYPRAAEDDSASPPGAASDAEPGDEERPGLQVDCVVCGDKSSGKHYGVFTCEGCKSFFKRSIRRNLSYTCRSNRDCQIDQHHRNQCQYCRLKKCFRVGMRKEAVQRGRIPHSLPGAVAASSGSPPGSALAAVASGGDLFPGQPVSELIAQLLRAEPYPAAAGRFGAGGGAAGAVLGIDNVCELAARLLFSTVEWARHAPFFPELPVADQVALLRLSWSELFVLNAAQAALPLHTAPLLAAAGLHAAPMAAERAVAFMDQVRAFQEQVDKLGRLQVDSAEYGCLKAIALFTPDACGLSDPAHVESLQEKAQVALTEYVRAQYPSQPQRFGRLLLRLPALRAVPASLISQLFFMRLVGKTPIETLIRDMLLSGSTFNWPYGSGQ
notes: Purified recombinant fusion protein, used as bait in the GST pull down from Jurkat T cell lysates and as substrate in the in vitro kinase assay; also called recombinant NR2F6; purified recombinant GST-NR2F6; not shown: GST tag; N-terminal position inferred from the name GST-NR2F6
